# Experimental data: paper PMC4022893, “Evidence for Follicle-stimulating Hormone Receptor as a Functional Trimer*” (The Journal of Biological Chemistry, 2014)
# T1: human follicle-stimulating hormone receptor on CHO-DUKX cell membranes (human, UniProt P23945 18-695)
# T1 construct: follicle-stimulating hormone receptor, human, expressed in CHO-DUKX cells; Used as isolated membranes, not live cells; also called FSHR; hFSHR; source: CHO-DUKX cells expressing the human FSH receptor, membrane preparation (nitrogen cavitation, 100,000 x g pellet)
# T1 sequence (looked up): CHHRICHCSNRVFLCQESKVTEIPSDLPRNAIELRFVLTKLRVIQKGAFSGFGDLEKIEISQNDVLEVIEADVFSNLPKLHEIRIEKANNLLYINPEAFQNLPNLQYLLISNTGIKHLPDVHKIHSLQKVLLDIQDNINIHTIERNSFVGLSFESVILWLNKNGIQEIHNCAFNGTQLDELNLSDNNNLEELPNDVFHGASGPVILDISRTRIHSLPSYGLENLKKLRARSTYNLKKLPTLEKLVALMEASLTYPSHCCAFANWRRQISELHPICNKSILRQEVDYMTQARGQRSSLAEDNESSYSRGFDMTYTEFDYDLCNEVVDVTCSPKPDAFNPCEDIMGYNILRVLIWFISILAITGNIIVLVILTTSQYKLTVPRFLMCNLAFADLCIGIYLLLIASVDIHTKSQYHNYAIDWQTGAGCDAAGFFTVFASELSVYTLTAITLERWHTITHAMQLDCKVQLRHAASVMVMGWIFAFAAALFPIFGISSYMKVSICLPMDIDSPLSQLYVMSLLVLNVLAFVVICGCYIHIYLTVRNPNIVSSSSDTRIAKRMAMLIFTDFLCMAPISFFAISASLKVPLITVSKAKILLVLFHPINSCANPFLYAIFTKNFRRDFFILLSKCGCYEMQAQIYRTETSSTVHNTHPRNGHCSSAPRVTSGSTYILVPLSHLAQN
# B1: full ectodomain of human FSHR (FSHRED, Ser16-Arg366) (domain or fragment, UniProt P23945 16-366, looked up)
# chain: SGCHHRICHCSNRVFLCQESKVTEIPSDLPRNAIELRFVLTKLRVIQKGAFSGFGDLEKIEISQNDVLEVIEADVFSNLPKLHEIRIEKANNLLYINPEAFQNLPNLQYLLISNTGIKHLPDVHKIHSLQKVLLDIQDNINIHTIERNSFVGLSFESVILWLNKNGIQEIHNCAFNGTQLDELNLSDNNNLEELPNDVFHGASGPVILDISRTRIHSLPSYGLENLKKLRARSTYNLKKLPTLEKLVALMEASLTYPSHCCAFANWRRQISELHPICNKSILRQEVDYMTQARGQRSSLAEDNESSYSRGFDMTYTEFDYDLCNEVVDVTCSPKPDAFNPCEDIMGYNILR
# notes: follicle-stimulating hormone receptor, human, full ectodomain, residues Ser16-Arg366; Three copies form a trimer in the crystal; also called FSHED; FSHR extracellular domain
# B2: 125I-N52D-FSH (FSH with Asn52 of the alpha-subunit mutated to aspartate) (ligand)
# chain 1: not shown
# chain 2: NSCELTNITIAIEKEECRFCISINTTWCAGYCYTRDLVYKDPARPKIQKTCTFKELVYETVRVPGCAHHADSLYTYPVATQCHCGKCDSDSTDCTVRGLGPSYCSFGEMKE
# modifications: no glycan at position 52; 125I label (chain not stated)
# notes: glycoprotein hormones alpha chain (FSH alpha-subunit), human; Heterodimer; the other three glycosylation sites are unchanged; also called αN52D-FSH mutant; mutant-N52D; source: recombinant, prepared using the same protocols as the fully glycosylated FSH; 125I-labelled (PerkinElmer Life Sciences)
# Columns and labels:
# [1] = target: the molecule itself; test: crystal structure; FSH-FSHRED complex at 10 mg/ml, 20 °C, hanging drops, 0.1 M imidazole pH 8.0, 20% Jeffamine M-600; space group P3_(1)
# [2] = target: T1, human follicle-stimulating hormone …; test: radioligand binding; 5 μg CHO-FSHR membrane with increasing concentrations of 125I-ligand; 10 mM Tris pH 7.4, 5 mM MgCl2, 0.2% BSA; 90 min at 37 °C; filtration; nonspecific binding with 500-fold excess of FSH; no Compound 5; details: one partner purified
# [3] = target: T1, human follicle-stimulating hormone …; test: as above; details: one partner purified; remark: listed apart in the source
Binder,stoichiometry N [1],receptor binding ratio of the N52D mutant to fully glycosylated FSH [2],Kd [3]
B1,3,,
B2,,~3,0.4 nM
